In patent US20230193513A1:

Target: glucagon-like peptide-1 receptor (GLP1R) (Homo sapiens (Human)) (UniProt P43220)
Test: cell-based or functional assay

Sequence of glucagon-like peptide-1 receptor (GLP1R) (Homo sapiens (Human)) (P43220 24-463): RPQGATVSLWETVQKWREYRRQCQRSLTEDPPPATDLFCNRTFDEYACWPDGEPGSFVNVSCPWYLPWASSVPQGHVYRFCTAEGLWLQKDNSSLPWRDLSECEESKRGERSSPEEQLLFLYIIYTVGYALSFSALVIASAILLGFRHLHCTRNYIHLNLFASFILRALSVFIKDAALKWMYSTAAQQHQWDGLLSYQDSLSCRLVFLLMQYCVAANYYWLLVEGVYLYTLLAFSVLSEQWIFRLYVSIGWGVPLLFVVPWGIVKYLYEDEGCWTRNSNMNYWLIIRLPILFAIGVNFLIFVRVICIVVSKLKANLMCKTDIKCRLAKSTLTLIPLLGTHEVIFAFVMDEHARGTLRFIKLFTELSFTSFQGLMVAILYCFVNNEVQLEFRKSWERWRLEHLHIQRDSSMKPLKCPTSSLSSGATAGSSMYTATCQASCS

EC50 (nM) of Exendin-4 induced cAMP activity with the antibody [nM] | EC50 (nM) of GLP1 (7-36)-induced signaling with GLP1R IgG (+100 nM) [nM] | fold difference of the EC50 against no antibody [fold] | fold-diff of the Exendin-4 EC50 against Exendin-4 alone [fold] | EC50 (nM) of the IgG as agonist, functional assay on GLP-1R overexpressing cells [nM] | Binder
0.63 | 1.31 | 2.2 | 5.4 | – | GLP1R-3 (antibody, from a related filing, V domains shown, part only) VH: QVQLVESGGGVVQPGRSLRLSCAASGFTFSSYGMHWVRQAPGKGLEWVSFISYDESNKYYADSVKGRFTISRDNSKNTLYLQMNSLRAEDTAVYYCAKHMSMQEGAVTGEGQAAKEFIAWLVKGRVRADLVGDAFDVWGQGTLVTVSS VL: QSVLTQPPSVSAAPGQKVTISCSGSSSNIADNYVSWYQQLPGTAPKLLIYDNNKRPSGIPDRFSGSKSGTSATLGITGLQTGDEADYYCGTWDNYLGAGVFGGGTKLTVLG
– | – | – | – | 0.722 | GLP1R-59-241 (antibody, part only; not given: light chain, part only) heavy: QVQLVQSGAEVKKPGSSVKVSCKASGGTFSDYAISWVRQAPGQGLEWMGGIIPIFGTTNYAQKFQGRVTITADESTSTAYMELSSLRSEDTAVYYCAKHMSMQGSVAGGTFTSDVSSYLEGQAAKEFIAWLVKGGPSFIRADLVGDAFDVWGQGTLVTVSSASASTKGPSVFPLAPCSRSTSESTAALGCLVKDYFPEPVTVSWNSGALTSGVHTFPAVLQSSGLYSLSSVVTVPSSNFGTQTYTCNVDHKPSNTKVDKTVERKCCVECPPCPAPPVAGPSVFLFPPKPKDTLMISRTPEVTCVVVDVSHEDPEVQFNWYVDGVEVHNAKTKPREEQFNSTFRVVSVLTVVHQDWLNGKEYKCKVSNKGLPAPIEKTISKTKGQPREPQVYTLPPSREEMTKNQVSLTCLVKGFYPSDIAVEWESNGQPENNYKTTPPMLDSDGSFFLYSKLTVDKSRWQQGNVFSCSVMHEALHNHYTQKSLSLSPG
– | – | – | – | 0.821 | GLP1R-59-243 (antibody, part only; not given: light chain, part only) heavy: QVQLVQSGAEVKKPGSSVKVSCKASGGTFSTYGINWVRQAPGQGLEWMGGIIPIFGTANYAQKFQGRVTITADESTSTAYMELSSLRSEDTAVYYCARANQHFFGKGDNLAARDFINWLIQTKITDGSNPGYHYYGMDVWGQGTLVTVSSASASTKGPSVFPLAPCSRSTSESTAALGCLVKDYFPEPVTVSWNSGALTSGVHTFPAVLQSSGLYSLSSVVTVPSSNFGTQTYTCNVDHKPSNTKVDKTVERKCCVECPPCPAPPVAGPSVFLFPPKPKDTLMISRTPEVTCVVVDVSHEDPEVQFNWYVDGVEVHNAKTKPREEQFNSTFRVVSVLTVVHQDWLNGKEYKCKVSNKGLPAPIEKTISKTKGQPREPQVYTLPPSREEMTKNQVSLTCLVKGFYPSDIAVEWESNGQPENNYKTTPPMLDSDGSFFLYSKLTVDKSRWQQGNVFSCSVMHEALHNHYTQKSLSLSPG
